Source: PMC9482650, “Quantitative fragmentomics allow affinity mapping of interactomes” (Nature Communications, 2022)
One block for each binder: values may come before it.

Key:
Experiment in all cases: holdup assay
Set-up in all cases: key: below the threshold = too weak to quantify, mostly under pKd 3.1 to 4
[1] = biological target: T1, APBA3_1, O96018
T1 sequence (O96018 389-490, limits assumed, looked up): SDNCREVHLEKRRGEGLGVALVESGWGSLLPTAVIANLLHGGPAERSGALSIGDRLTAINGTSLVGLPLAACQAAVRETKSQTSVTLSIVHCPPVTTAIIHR

[2] = biological target: T2, ARHGAP21, Q5T5U3
T2 sequence (Q5T5U3 45-169, limits assumed, looked up): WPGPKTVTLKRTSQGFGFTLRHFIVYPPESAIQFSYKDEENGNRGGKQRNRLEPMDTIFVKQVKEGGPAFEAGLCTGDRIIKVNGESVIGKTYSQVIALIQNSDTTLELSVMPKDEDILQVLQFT

[3] = biological target: T3, ARHGEF11, O15085
T3 sequence (O15085 42-136, limits assumed, looked up): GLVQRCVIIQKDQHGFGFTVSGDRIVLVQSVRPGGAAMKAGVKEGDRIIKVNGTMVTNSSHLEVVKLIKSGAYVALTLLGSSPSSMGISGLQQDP

[4] = biological target: ARHGEF12, Q9NZN5-2
ARHGEF12, Q9NZN5-2, sequence (Q9NZN5 other isoform, or with tags, fused parts or gaps): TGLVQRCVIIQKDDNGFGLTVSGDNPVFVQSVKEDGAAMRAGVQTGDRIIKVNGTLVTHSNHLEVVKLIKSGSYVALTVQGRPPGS

[5] = biological target: CASK, O14936
CASK, O14936, sequence (O14936 487-570): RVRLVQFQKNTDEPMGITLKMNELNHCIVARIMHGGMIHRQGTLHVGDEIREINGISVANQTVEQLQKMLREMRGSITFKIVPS

[6] = biological target: DLG5_1, Q8TDM6
DLG5_1, Q8TDM6, sequence (Q8TDM6 617-713): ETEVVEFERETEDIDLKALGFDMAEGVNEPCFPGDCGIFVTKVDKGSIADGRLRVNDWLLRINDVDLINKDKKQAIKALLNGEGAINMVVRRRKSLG

[7] = biological target: FRMPD4, Q14CM0
FRMPD4, Q14CM0, sequence (Q14CM0 67-160): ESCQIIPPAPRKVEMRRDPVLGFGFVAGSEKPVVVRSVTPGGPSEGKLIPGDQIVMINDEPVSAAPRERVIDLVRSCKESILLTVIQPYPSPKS

[8] = biological target: GRIP2_4, Q9C0E4
GRIP2_4, Q9C0E4, sequence (Q9C0E4 446-548): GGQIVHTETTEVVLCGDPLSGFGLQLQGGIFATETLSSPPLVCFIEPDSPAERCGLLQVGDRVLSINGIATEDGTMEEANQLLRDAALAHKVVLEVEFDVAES

[9] = biological target: HTRA1, Q92743
HTRA1, Q92743, sequence (Q92743 360-477): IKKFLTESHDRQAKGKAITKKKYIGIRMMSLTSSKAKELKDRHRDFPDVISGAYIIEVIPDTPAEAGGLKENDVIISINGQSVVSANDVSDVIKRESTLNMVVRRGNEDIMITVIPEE

[10] = biological target: IL16_3, Q14005
IL16_3, Q14005, sequence (Q14005 1107-1207): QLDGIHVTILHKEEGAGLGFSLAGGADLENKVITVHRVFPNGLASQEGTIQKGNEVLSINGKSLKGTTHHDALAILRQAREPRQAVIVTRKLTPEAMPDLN

[11] = biological target: Inadl_10, Q8NI35
Inadl_10, Q8NI35, sequence (Q8NI35 1673-1763): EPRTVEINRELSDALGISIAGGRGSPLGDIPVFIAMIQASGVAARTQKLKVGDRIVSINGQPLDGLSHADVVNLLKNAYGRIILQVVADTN

[12] = biological target: Inadl_2, Q8NI35
Inadl_2, Q8NI35, sequence (Q8NI35 238-335): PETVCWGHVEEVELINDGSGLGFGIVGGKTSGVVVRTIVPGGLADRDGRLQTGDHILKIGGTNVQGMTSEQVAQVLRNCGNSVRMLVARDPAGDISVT

[13] = biological target: Inadl_5, Q8NI35
Inadl_5, Q8NI35, sequence (Q8NI35 673-780): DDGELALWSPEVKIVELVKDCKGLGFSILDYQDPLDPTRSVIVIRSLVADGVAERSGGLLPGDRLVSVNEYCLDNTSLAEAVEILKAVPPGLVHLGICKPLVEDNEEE

[14] = biological target: T4, LIN7B, Q9HAP6
T4 sequence (Q9HAP6 88-185, limits assumed, looked up): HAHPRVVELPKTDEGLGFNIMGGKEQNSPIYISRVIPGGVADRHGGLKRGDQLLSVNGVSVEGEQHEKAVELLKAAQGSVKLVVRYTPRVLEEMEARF

[15] = biological target: T5, LRRC7, Q96NW7
T5 sequence (Q96NW7 1440-1537, limits assumed, looked up): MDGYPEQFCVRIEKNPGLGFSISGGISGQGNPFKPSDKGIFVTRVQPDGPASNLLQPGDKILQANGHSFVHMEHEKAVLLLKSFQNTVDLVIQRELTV

[16] = biological target: MAGI1_1, Q96QZ7
MAGI1_1, Q96QZ7, sequence (Q96QZ7 1-106): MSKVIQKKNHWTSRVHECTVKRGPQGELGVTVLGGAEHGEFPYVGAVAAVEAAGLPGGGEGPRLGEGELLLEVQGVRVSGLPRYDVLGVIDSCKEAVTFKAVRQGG

[17] = biological target: MAST2, Q6P0Q8
MAST2, Q6P0Q8, sequence (Q6P0Q8 1099-1202): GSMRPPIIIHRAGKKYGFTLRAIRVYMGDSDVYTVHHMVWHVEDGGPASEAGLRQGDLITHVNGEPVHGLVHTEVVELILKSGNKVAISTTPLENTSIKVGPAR

[18] = biological target: T6, MPDZ_12, O75970
T6 sequence (O75970 1857-1958, limits assumed, looked up): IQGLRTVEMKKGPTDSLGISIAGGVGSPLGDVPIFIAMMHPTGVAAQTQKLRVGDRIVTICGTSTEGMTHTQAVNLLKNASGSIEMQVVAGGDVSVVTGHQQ

[19] = biological target: T7, MPP2, Q14168
T7 sequence (Q14168 180-250, limits assumed, looked up): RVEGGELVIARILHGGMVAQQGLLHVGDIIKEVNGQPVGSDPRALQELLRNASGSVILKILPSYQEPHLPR

[20] = biological target: NHERF4_2, Q86UT5
NHERF4_2, Q86UT5, sequence (Q86UT5 220-308): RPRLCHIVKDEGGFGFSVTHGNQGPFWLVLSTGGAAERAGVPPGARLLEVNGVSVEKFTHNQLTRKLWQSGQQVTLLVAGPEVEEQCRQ

[21] = biological target: T8, PCLO, Q9Y6V0
T8 sequence (Q9Y6V0 4491-4600, limits assumed, looked up): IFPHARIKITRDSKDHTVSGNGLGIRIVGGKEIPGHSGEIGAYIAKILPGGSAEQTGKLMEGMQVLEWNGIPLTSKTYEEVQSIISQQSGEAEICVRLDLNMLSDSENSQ

[22] = biological target: PICK1, Q9NRD5
PICK1, Q9NRD5, sequence (Q9NRD5 17-115): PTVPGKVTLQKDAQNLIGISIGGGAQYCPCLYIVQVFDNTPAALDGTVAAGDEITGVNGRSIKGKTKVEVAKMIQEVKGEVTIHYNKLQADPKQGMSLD

[23] = biological target: T9, PTPN13_1, Q12923
T9 sequence (Q12923 1088-1188, limits assumed, looked up): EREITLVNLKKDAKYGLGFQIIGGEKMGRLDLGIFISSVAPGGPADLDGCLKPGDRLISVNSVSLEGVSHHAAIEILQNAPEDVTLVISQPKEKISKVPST

[24] = biological target: PTPN3, P26045
PTPN3, P26045, sequence (P26045 505-587): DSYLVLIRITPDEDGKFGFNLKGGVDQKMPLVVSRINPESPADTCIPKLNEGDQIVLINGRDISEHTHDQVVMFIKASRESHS

[25] = biological target: T10, RADIL, Q96JH8
T10 sequence (Q96JH8 971-1071, limits assumed, looked up): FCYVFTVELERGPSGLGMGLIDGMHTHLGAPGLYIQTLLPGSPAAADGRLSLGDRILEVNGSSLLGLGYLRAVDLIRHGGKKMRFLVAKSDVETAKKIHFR

[26] = biological target: T11, SHANK1, Q9Y566
T11 sequence (Q9Y566 658-767, limits assumed, looked up): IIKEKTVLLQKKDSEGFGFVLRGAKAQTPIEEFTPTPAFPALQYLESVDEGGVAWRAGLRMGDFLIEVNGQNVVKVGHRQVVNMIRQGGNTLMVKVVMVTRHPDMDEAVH

[27] = biological target: TJP1_2, Q07157
TJP1_2, Q07157, sequence (Q07157 181-274): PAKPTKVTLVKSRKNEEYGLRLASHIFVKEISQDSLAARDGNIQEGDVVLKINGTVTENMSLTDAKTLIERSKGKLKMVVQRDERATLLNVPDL

[28] = plain residues with an end cap or a label only (N-terminal biotin on a linker: ttds)
[29] = plain residues with an end cap or a label only (N-terminal biotin on a linker: ahx)

Binder: TEAKLTETNA [MYO18A, Q92614]
- pKd [1, 29]: below the threshold
- pKd [2, 29]: below the threshold
- pKd [3, 29]: below the threshold
- pKd [4, 29]: below the threshold
- pKd [5, 29]: below the threshold
- pKd [6, 29]: below the threshold
- pKd [7, 29]: below the threshold
- pKd [8, 29]: below the threshold
- pKd [9, 29]: below the threshold
- pKd [10, 29]: below the threshold
- pKd [11, 29]: below the threshold
- pKd [12, 29]: below the threshold
- pKd [13, 29]: below the threshold
- pKd [14, 29]: below the threshold
- pKd [15, 29]: below the threshold
- pKd [16, 29]: below the threshold
- pKd [17, 29]: below the threshold
- pKd [18, 29]: below the threshold
- pKd [19, 29]: below the threshold
- pKd [20, 29]: below the threshold
- pKd [21, 29]: below the threshold
- pKd [22, 29]: below the threshold
- pKd [23, 29]: below the threshold
- pKd [24, 29]: below the threshold
- pKd [25, 29]: below the threshold
- pKd [26, 29]: below the threshold
- pKd [27, 29]: below the threshold

Binder: QSARYRDTEL [TJP2, Q9UDY2]
- pKd [1, 28]: below the threshold
- pKd [2, 28]: 4.48
- pKd [3, 28]: 3.87
- pKd [4, 28]: 4.27
- pKd [5, 28]: below the threshold
- pKd [6, 28]: below the threshold
- pKd [7, 28]: 4.35
- pKd [8, 28]: below the threshold
- pKd [9, 28]: below the threshold
- pKd [10, 28]: below the threshold
- pKd [11, 28]: below the threshold
- pKd [12, 28]: below the threshold
- pKd [13, 28]: below the threshold
- pKd [14, 28]: below the threshold
- pKd [15, 28]: 3.86
- pKd [16, 28]: 3.55
- pKd [17, 28]: 5.7
- pKd [18, 28]: below the threshold
- pKd [19, 28]: below the threshold
- pKd [20, 28]: below the threshold
- pKd [21, 28]: below the threshold
- pKd [22, 28]: below the threshold
- pKd [23, 28]: below the threshold
- pKd [24, 28]: 4.98
- pKd [25, 28]: below the threshold
- pKd [26, 28]: 3.74
- pKd [27, 28]: below the threshold

Binder: IDNDTESTAL [ARHGAP17, Q68EM7]
- pKd [1, 28]: below the threshold
- pKd [2, 28]: below the threshold
- pKd [3, 28]: 4.79
- pKd [4, 28]: 4.77
- pKd [5, 28]: below the threshold
- pKd [6, 28]: below the threshold
- pKd [7, 28]: 4.45
- pKd [8, 28]: below the threshold
- pKd [9, 28]: 3.65
- pKd [10, 28]: below the threshold
- pKd [11, 28]: below the threshold
- pKd [12, 28]: below the threshold
- pKd [13, 28]: below the threshold
- pKd [14, 28]: below the threshold
- pKd [15, 28]: below the threshold
- pKd [16, 28]: below the threshold
- pKd [17, 28]: below the threshold
- pKd [18, 28]: below the threshold
- pKd [19, 28]: below the threshold
- pKd [20, 28]: below the threshold
- pKd [21, 28]: below the threshold
- pKd [22, 28]: below the threshold
- pKd [23, 28]: below the threshold
- pKd [24, 28]: 4.76
- pKd [25, 28]: below the threshold
- pKd [26, 28]: 5.53
- pKd [27, 28]: below the threshold

Further lines, results first:

- pKd [1, 28]: below the threshold
- pKd [2, 28]: 3.68
- pKd [3, 28]: 4.44
- pKd [4, 28]: 4.67
- pKd [5, 28]: below the threshold
- pKd [6, 28]: below the threshold
- pKd [7, 28]: 4.48
- pKd [8, 28]: below the threshold
- pKd [9, 28]: below the threshold
- pKd [10, 28]: below the threshold
- pKd [11, 28]: below the threshold
- pKd [12, 28]: below the threshold
- pKd [13, 28]: below the threshold
- pKd [14, 28]: 3.66
- pKd [15, 28]: below the threshold
- pKd [16, 28]: below the threshold
- pKd [17, 28]: 5.91
- pKd [18, 28]: below the threshold
- pKd [19, 28]: below the threshold
- pKd [20, 28]: below the threshold
- pKd [21, 28]: below the threshold
- pKd [22, 28]: below the threshold
- pKd [23, 28]: below the threshold
- pKd [24, 28]: 4.9
- pKd [25, 28]: below the threshold
- pKd [26, 28]: 4.67
- pKd [27, 28]: below the threshold
Binder: GQDSREETQL [KCNT2, Q6UVM3]

- pKd [1, 28]: below the threshold
- pKd [2, 28]: below the threshold
- pKd [3, 28]: below the threshold
- pKd [4, 28]: 3.7
- pKd [5, 28]: below the threshold
- pKd [6, 28]: below the threshold
- pKd [7, 28]: below the threshold
- pKd [8, 28]: below the threshold
- pKd [9, 28]: below the threshold
- pKd [10, 28]: below the threshold
- pKd [11, 28]: below the threshold
- pKd [12, 28]: below the threshold
- pKd [13, 28]: below the threshold
- pKd [14, 28]: 3.67
- pKd [15, 28]: below the threshold
- pKd [16, 28]: below the threshold
- pKd [17, 28]: 5.56
- pKd [18, 28]: below the threshold
- pKd [19, 28]: below the threshold
- pKd [20, 28]: below the threshold
- pKd [21, 28]: below the threshold
- pKd [22, 28]: below the threshold
- pKd [23, 28]: below the threshold
- pKd [24, 28]: 4.97
- pKd [25, 28]: below the threshold
- pKd [26, 28]: 3.77
- pKd [27, 28]: below the threshold
Binder: VLRLQSETSV [VANGL1, Q8TAA9]
